Source: paper PMC3131385, “TBP Binding-Induced Folding of the Glucocorticoid Receptor AF1 Domain Facilitates Its Interaction with Steroid Receptor Coactivator-1” (PLoS ONE, 2011)

B1: glucocorticoid receptor (GR) N-terminal activation function domain AF1 (domain or fragment, human, UniProt P04150 77-262, looked up)
chain: DLSKAVSLSMGLYMGETETKVMGNDLGFPQQGQISLSSGETDLKLLEESIANLNRSTSVPENPKSSASTAVSAAPTEKEFPKTHSDVSSEQQHLKGQTGTNGGNVKLYTTDQSTFDILQDLEFSSGSPGKETNESPWRSDLLIDENCLLSPLAGEDDSFLLEGNSNEDCKPLILPDTKPKIKDNGD
notes: human glucocorticoid receptor, AF1 domain, amino acid residues 77-262; made from human GR cDNA digested with BglII; also called GR AF1
B2: GR AF1:TBPC complex (complex, human)
chain 1: B1 chain
chain 2: SGIVPQLQNIVSTVNLGCKLDLKTIALRARNAEYNPKRFAAVIMRIREPRTTALIFSSGKMVCTGAKSEEQSRLAARKYARVVQKLGFPAKFLDFKIQNMVGSCDVKFPIRLEGLVLTHQQFSSYEPELFPGLIYRMIKPRIVLLIFVSGKVVLTGAKVRAEIYEAFENIYPILKGFRKTT
notes: human glucocorticoid receptor, AF1 domain, amino acid residues 77-262; as m1; as m2; AF1, TBPC and the nuclear extract were mixed at once; only AF1 was detected on the blot; also called AF1 complexed with TBPC; source: purified AF1 and purified TBPC (10 µg) mixed together with HeLa nuclear extract
B3: TBPC, 181 C-terminal residues of human TATA box binding protein (TBP) (domain or fragment, UniProt P20226 159-339, looked up)
chain: B2 chain 2
notes: source: E. coli BL21(DE3), purified (NTA column, imidazole step-gradient)

Legend:
[1] = target: T1, TBPC, 181 C-terminal residues of human TATA box binding protein (TBP) (human, UniProt P20226 159-339); assay: SPR
T1 chain: B2 chain 2

[2] = target: B3; assay: SPR; TBPc immobilised on C1 chip (Fc2, 200-250 RU, through ionic interaction), AF1 as analyte 0.2-6.4 µM, multi-cycle kinetics, room temperature, 0.01 M HEPES pH 7.4, 0.15 M NaCl, 50 µM EDTA, 0.05% Tween-20; 1:1 Langmuir model, KD = kd/ka; details: both partners purified
[3] = target: T2, steroid receptor coactivator-1 (SRC-1) (human (endogenous in HeLa), UniProt Q15788 1-1441); assay: co-IP; SRC-1 antibody on protein A/G-agarose beads; HeLa nuclear extract (0.5 mg total protein) mixed with 10 µg purified AF1 and/or TBPC, 4°C; blot with GR AF1 antibody; details: one partner purified
T2 construct: source: endogenous, HeLa nuclear extract
T2 sequence (Q15788 whole entry): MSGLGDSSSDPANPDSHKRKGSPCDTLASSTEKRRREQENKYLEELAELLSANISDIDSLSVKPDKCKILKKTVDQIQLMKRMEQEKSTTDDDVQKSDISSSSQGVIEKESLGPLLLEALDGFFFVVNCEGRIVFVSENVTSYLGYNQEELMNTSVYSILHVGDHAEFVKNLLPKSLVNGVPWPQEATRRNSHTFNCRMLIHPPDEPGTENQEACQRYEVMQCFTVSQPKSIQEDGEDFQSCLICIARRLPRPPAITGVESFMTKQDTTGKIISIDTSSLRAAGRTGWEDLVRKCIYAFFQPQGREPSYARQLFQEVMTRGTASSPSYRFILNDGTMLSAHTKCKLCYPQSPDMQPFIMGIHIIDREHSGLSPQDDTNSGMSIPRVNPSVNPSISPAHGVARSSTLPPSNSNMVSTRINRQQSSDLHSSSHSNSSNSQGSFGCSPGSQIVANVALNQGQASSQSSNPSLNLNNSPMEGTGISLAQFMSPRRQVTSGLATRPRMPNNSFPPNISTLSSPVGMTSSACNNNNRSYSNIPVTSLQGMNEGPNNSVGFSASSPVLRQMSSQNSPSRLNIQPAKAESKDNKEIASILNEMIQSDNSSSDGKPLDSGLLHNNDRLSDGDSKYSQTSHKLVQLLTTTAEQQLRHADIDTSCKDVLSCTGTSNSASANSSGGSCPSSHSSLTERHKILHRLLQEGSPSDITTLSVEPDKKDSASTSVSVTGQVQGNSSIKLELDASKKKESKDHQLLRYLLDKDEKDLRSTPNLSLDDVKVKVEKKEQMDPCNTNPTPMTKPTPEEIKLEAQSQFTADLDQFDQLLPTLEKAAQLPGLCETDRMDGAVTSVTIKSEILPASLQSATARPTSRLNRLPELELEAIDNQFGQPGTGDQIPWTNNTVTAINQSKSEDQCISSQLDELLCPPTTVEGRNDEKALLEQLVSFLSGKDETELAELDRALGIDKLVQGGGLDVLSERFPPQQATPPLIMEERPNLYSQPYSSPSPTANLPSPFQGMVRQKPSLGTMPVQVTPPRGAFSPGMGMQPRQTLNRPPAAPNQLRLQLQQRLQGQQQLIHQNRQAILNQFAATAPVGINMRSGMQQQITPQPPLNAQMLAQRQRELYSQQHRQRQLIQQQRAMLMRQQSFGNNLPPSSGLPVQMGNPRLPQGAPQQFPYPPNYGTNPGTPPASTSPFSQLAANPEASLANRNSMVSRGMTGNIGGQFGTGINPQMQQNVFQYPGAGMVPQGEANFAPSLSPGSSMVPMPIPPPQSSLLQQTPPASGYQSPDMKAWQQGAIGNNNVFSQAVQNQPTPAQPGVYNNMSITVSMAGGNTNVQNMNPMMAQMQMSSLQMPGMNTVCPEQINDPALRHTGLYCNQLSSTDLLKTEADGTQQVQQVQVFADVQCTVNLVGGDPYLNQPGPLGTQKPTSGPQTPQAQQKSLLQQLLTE

[4] = target: B1; assay: circular dichroism titration; far-UV CD at 22°C, AF1 fixed at 4.5 µM, TBPC varied (AF1:TBPC 1:0.25 to 1:2); ellipticity at 220 nm, experimental against theoretical sum; details: both partners purified
[5] = target: B1; assay: SPR; TBPc immobilised on C1 chip (Fc2, 200-250 RU, through ionic interaction), AF1 as analyte 0.2-6.4 µM, multi-cycle kinetics, room temperature, 0.01 M HEPES pH 7.4, 0.15 M NaCl, 50 µM EDTA, 0.05% Tween-20; 1:1 Langmuir model, KD = kd/ka; details: both partners purified

Binder: B1
- koff [1]: 0.00143 s⁻¹
- stoichiometry N [2]: 1

Binder: B2
- fold increase against AF1 alone [3]: ~8 fold

Binder: B3
- stoichiometry N [4]: ~1
- Kd [5]: 460 nM
